# Experimental data as given in patent publication US20200317768A1 (published 2020).
# Numbering of substitutions follows the chain as printed.
# T1: cynomolgus monkey FcγRIIa1 extracellular domain with C-terminal His-tag (cynomolgus monkey)
# T1 construct: Expressed in FreeStyle 293 cells and purified; also called cyno FcγRIIa1; cynoFcgRIIa1; not shown: C-terminal His-tag
# T1 chain: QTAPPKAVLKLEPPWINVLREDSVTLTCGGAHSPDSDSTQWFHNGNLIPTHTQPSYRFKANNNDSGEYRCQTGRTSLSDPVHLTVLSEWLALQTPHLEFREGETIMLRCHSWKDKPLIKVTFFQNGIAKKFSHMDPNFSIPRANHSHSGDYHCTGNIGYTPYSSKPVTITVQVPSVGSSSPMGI
# T2: cynomolgus monkey FcγRIIa2 extracellular domain with C-terminal His-tag (cynomolgus monkey)
# T2 construct: Expressed in FreeStyle 293 cells and purified; also called cyno FcγRIIa2; cynoFcgRIIa2; not shown: C-terminal His-tag
# T2 chain: T1 chain with P95T, T121A, I127K, A128S, K130N, D135N, R142Q
# T3: cynomolgus monkey FcγRIIa3 extracellular domain with C-terminal His-tag (cynomolgus monkey)
# T3 construct: Expressed in FreeStyle 293 cells and purified; also called cyno FcγRIIa3; cynoFcgRIIa3; not shown: C-terminal His-tag
# T3 chain: T1 chain with P95T, T121A, A128S, H133P, D135N
# T4: cynomolgus monkey FcγRIIb extracellular domain with C-terminal His-tag (cynomolgus monkey)
# T4 construct: Expressed in FreeStyle 293 cells and purified; also called cyno FcγRIIb; cynoFcγRIIb; not shown: C-terminal His-tag
# T4 chain: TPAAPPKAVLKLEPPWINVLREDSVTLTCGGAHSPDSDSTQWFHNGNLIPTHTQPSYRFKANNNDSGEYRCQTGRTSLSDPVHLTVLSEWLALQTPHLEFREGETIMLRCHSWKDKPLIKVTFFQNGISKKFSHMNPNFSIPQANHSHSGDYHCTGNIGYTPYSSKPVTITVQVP
# T5: cynomolgus monkey FcγRIIIaS extracellular domain with C-terminal His-tag (cynomolgus monkey, UniProt Q8SPW2 21-206 at identity 1.00))
# T5 construct: Expressed in FreeStyle 293 cells and purified; also called cyno FcγRIIIaS; cynoFcγRIIIaS; not shown: C-terminal His-tag
# T5 chain: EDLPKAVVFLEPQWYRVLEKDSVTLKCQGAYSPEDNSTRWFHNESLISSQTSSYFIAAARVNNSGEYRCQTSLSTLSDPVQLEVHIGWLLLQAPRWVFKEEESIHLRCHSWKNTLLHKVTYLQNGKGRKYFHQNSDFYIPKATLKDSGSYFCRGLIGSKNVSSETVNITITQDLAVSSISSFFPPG
# T6: human FcγRIIaH extracellular domain with C-terminal His-tag (human, UniProt P12318 34-217)
# T6 construct: Expressed in FreeStyle 293 cells and purified; also called human FcγRIIa (type H); FcgRIIaH; not shown: C-terminal His-tag
# T6 sequence: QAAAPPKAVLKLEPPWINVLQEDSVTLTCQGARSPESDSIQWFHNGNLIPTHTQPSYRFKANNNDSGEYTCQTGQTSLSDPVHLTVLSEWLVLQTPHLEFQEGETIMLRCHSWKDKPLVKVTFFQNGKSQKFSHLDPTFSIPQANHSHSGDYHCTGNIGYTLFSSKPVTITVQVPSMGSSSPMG
# T7: human FcγRIIaR extracellular domain with C-terminal His-tag (human, UniProt P12318 34-217)
# T7 construct: Expressed in FreeStyle 293 cells and purified; also called human FcγRIIa (type R); FcgRIIaR; not shown: C-terminal His-tag
# T7 chain: T6 sequence with H134R
# B1: M103205H795-MY172 / M103202L889-SK1 (antibody, human IgG1, kappa)
# heavy: QVTLKESGPVLVKPTETLTLTCTVSGIDLSHDDISWVRQAPGKGLEWVGIISYAGSTYYASWAKGRLTISKDTSKNQVVLTMTNMDPVDTATYYCARGVPAYSHGGDLWGQGTLVTVSSASTKGPSVFPLAPSSKSTSGGTAALGCLVKDYFPEPVTVSWNSGALTSGVHTFPAVLQSSGLYSLSSVVTVPSSSLGTQTYICNVNHKPSNTKVDKKVEPKSCDKTHTCPPCPAPELLNGPSVFLFPPKPKDTLMISRTPEVTCVVVDVSEEDPEVKFNWYVDGVEVHNAKTKPREEQYNSTYRVVSVLTVLHQDWLNGKEYKCKVSNKALPAPIEKTISKAKGQPREPQVYTLPPSREEMTKNQVSLTCLVKGFYPSDIAVEWESNGQPENNYKTTPGVLDSDGSFFLYSKLTVDKSRWQQGNVFSCSVMHEALHNHYTQKSLSLSP
# light: DIVMTQSPATLSLSPGERATLSCTSSQSVYHANWLSWFQQKPGQPPKLLIYWASTLAYGVPSRFSGSGSGTDFTLTISSLQPEDAATYYCAGGYGGGRYAFGQGTKVEIKRTVAAPSVFIFPPSDEQLKSGTASVVCLLNNFYPREAKVQWKVDNALQSGNSQESVTEQDSKDSTYSLSSTLTLSKADYEKHKVYACEVTHQGLSSPVTKSFNRGEC
# notes: Position 396 variant derived from MY052, expressed with M103202L889-SK1 as light chain
# B2: M103205H795-MY178 / M103202L889-SK1 (antibody, human IgG1, kappa)
# heavy: B1 heavy with G398Q
# light: B1 light
# notes: as for B1
# B3: M103205H795-MY179 / M103202L889-SK1 (antibody, human IgG1, kappa)
# heavy: B1 heavy with G398R
# light: B1 light
# notes: as for B1
# B4: M103205H795-MY174 / M103202L889-SK1 (antibody, human IgG1, kappa)
# heavy: B1 heavy with G398I
# light: B1 light
# notes: as for B1
# B5: M103205H795-MY176 / M103202L889-SK1 (antibody, human IgG1, kappa)
# heavy: B1 heavy with G398L
# light: B1 light
# notes: as for B1
# B6: M103205H795-MY177 / M103202L889-SK1 (antibody, human IgG1, kappa)
# heavy: B1 heavy with G398N
# light: B1 light
# notes: as for B1
# B7: M103205H795-MY173 / M103202L889-SK1 (antibody, human IgG1, kappa)
# heavy: B1 heavy with G398H
# light: B1 light
# notes: as for B1
# B8: M103205H795-MY175 / M103202L889-SK1 (antibody, human IgG1, kappa)
# heavy: B1 heavy with G398K
# light: B1 light
# notes: as for B1
# Biological target: T1, cynomolgus monkey FcγRIIa1 …
# Assay: SPR (Biacore), antibody captured on chip, FcgR extracellular domain as analyte, 25 C
# Experimental: (§1) The kinetic analysis of interactions between these antibodies and FcγR was carried out using BIACORE® T200 or BIACORE® 4000 (GE Healthcare). HBS-EP+ (GE Healthcare) was used as the running buffer, and the measurement temperature was set to 25° C. A chip produced by immobilizing Protein A. Protein A/G or mouse anti-human IgG kappa light chain (BD Biosciences) onto a Series S Sensor Chip CM4 or CM5 (GE Healthcare) by the amine-coupling method was used. […] After the measurement, the antibody captured on the chip was washed off by allowing reaction with 10 mM glycine-HCl, pH1.5 and 25 mM NaOH so that the chip was regenerated and used repeatedly. The sensorgrams obtained as measurement results were analyzed by the 1:1 Langmuir binding model using the BIACORE® Evaluation Software to calculate the binding rate constant ka (L/mol/s) and dissociation rate constant kd (l/s), and the dissociation constant KD (mol/L) was calculated from these values. […] Regarding such interactions, KD values were calculated using the following 1:1 binding model described in BIACORE® T100 Software Handbook BR1006-48 Edition AE.
# (§2) The resultant variants were expressed using M103202L889-SK1 as light chain and their affinity to human and cynoFcγRs were evaluated (Table 20).
row,Kd [nM],Binder
1,2700,B1
2,2000,B2
3,1900,B3
4,1500,B4
5,1300,B5
6,1900,B6
7,1700,B7
8,1400,B8

# Biological target: T2, cynomolgus monkey FcγRIIa2 …
# Assay: as above
# Experimental: as §1, §2
row,Kd [nM],Binder
1,2300,B1
2,2100,B2
3,2000,B3
4,1600,B4
5,1400,B5
6,1800,B6
7,1800,B7
8,1500,B8

# Biological target: T3, cynomolgus monkey FcγRIIa3 …
# Assay: as above
# Experimental: as §1, §2
row,Kd [nM],Binder
1,11000,B1
2,8700,B2
3,7900,B3
4,6400,B4
5,5000,B5
6,8100,B6
7,3000,B7
8,7500,B8

# Biological target: T4, cynomolgus monkey FcγRIIb extracellular …
# Assay: as above
# Experimental: as §1, §2
row,Kd [nM],Binder
1,1200,B1
2,950,B2
3,980,B3
4,650,B4
5,620,B5
6,830,B6
7,780,B7
8,710,B8

# Biological target: T5, cynomolgus monkey FcγRIIIaS …
# Assay: as above
# Experimental: as §1, §2
row,Kd [nM],Binder
1,3300,B1
2,3000,B2
3,2700,B3
4,2500,B4
5,2700,B5
6,2900,B6
7,3100,B7
8,2600,B8

# Biological target: T6, human FcγRIIaH extracellular domain …
# Assay: as above
# Experimental: as §1, §2
row,Kd [nM],Binder
1,17000,B1
2,1200,B2
3,11000,B3
4,810,B4
5,700,B5
6,10000,B6
7,1000,B7
8,860,B8

# Biological target: T7, human FcγRIIaR extracellular domain …
# Assay: as above
# Experimental: as §1, §2
row,Kd [nM],Binder
1,3100,B1
2,2300,B2
3,2100,B3
4,1400,B4
5,1300,B5
6,2800,B6
7,1900,B7
8,1800,B8

# Biological target: T8, human FcγRIIIaV extracellular domain with C-terminal His-tag (human, UniProt P08637 17-208)
# T8 construct: Expressed in FreeStyle 293 cells and purified; also called FcgRIIIaV; not shown: C-terminal His-tag
# Assay: as above
# Experimental: as §1, §2
# T8 sequence (P08637 17-208 F176V): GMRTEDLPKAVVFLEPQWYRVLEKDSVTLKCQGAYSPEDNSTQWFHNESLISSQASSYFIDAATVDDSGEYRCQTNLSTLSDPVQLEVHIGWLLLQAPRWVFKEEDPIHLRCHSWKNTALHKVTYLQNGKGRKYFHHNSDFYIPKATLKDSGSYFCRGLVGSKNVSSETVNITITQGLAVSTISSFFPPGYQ
row,Kd [nM],Binder
1,6500,B1
2,4500,B2
3,5900,B3
4,6800,B4
5,6700,B5
6,6200,B6
7,7000,B7
8,7600,B8
